According to IntAct's records for PubMed 16339850:

B1: Zinc finger protein CONSTANS-LIKE 3 (Arabidopsis thaliana (Mouse-ear cress)), Q9SK53 (parent)
chain: MASSSRLCDSCKSTAATLFCRADAAFLCGDCDGKIHTANKLASRHERVWLCEVCEQAPAHVTCKADAAALCVTCDRDIHSANPLSRRHERVPITPFYDAVGPAKSASSSVNFVDEDGGDVTASWLLAKEGIEITNLFSDLDYPKIEVTSEENSSGNDGVVPVQNKLFLNEDYFNFDLSASKISQQGFNFINQTVSTRTIDVPLVPESGGVTAEMTNTETPAVQLSPAEREARVLRYREKRKNRKFEKTIRYASRKAYAEMRPRIKGRFAKRTDSRENDGGDVGVYGGFGVVPSF
partner: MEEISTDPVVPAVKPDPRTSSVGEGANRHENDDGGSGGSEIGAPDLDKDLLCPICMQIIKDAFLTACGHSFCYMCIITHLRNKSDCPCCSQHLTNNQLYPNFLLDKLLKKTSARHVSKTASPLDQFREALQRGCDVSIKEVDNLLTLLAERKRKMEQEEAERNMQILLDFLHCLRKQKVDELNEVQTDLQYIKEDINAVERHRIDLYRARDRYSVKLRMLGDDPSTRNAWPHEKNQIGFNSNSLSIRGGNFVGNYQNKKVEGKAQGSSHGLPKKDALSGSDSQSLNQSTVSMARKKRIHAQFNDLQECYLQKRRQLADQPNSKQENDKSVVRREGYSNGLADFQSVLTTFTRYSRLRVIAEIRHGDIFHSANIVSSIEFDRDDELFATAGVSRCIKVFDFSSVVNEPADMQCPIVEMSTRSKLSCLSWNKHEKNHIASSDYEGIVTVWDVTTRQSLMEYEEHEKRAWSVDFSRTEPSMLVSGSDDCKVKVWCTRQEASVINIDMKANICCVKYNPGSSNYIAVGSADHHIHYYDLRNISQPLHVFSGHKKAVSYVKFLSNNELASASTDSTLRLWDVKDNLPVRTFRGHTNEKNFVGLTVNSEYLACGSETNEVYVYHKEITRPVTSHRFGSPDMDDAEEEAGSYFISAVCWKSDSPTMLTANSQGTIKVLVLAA
B2: E3 ubiquitin-protein ligase COP1 (Arabidopsis thaliana (Mouse-ear cress)), P43254 (parent)
chain: B1 partner
partner: B1 chain

Variants of: B1
Settings: with cop1_arath COP1, P43254

effect of a mutation on the interaction	Variant
disrupting interaction	MASSSRLCDSCKSTAATLFCRADAAFLCGDCDGKIHTANKLASRHERVWLCEVCEQAPAHVTCKADAAALCVTCDRDIHSANPLSRRHERVPITPFYDAVGPAKSASSSVNFVDEDGGDVTASWLLAKEGIEITNLFSDLDYPKIEVTSEENSSGNDGVVPVQNKLFLNEDYFNFDLSASKISQQGFNFINQTVSTRTIDVPLVPESGGVTAEMTNTETPAVQLSPAEREARVLRYREKRKNRKFEKTIRYASRKAYAEMRPRIKGRFAKRTDSRENDGGDVGVYGGFGVAASF [V291A;P292A]

Variants of: B2
Settings: with col3_arath COL3, Q9SK53

effect of a mutation on the interaction	Variant
disrupting interaction strength	G524E
